Data from PMC3339974 (The Journal of Biological Chemistry, 2012).
Values belong to the molecule of their own block, whether it stands above or below them.

What was measured:
[1] = molecular target: soluble mouse CD3ϵ ectodomain homodimer (mouse) (UniProt P22646)
[2] = molecular target: T1, soluble mouse CD3ϵ ectodomain homodimer (Mus musculus (strain )); test: crystal structure
T1 chain: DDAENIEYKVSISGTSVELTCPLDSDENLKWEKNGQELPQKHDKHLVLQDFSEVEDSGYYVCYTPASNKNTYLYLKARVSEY

stoichiometry N [1]: 2
Molecule: soluble mouse CD3ϵ ectodomain homodimer (from UniProt P22646 23-108) (domain or fragment)

binding result [2]: binds
B1: 2C11 Fab (Fab, V domains shown)
VH: EVQLVESGGGLVQPGKSLKLSCEASGFTFSGYGMHWVRQAPGRGLESVAYITSSSINIKYADAVKGRFTVSRDNAKNLLFLQMNILKSEDTAMYYCARFDWDKNYWGQGTMVTVSS
VL: DIQMTQSPSSLPASLGDRVTINCQASQDISNYLNWYQQKPGKAPKLLIYYTNKLADGVPSRFSGSGSGRDSSFTISSLESEDIGSYYCQQYYNYPWTFGPGTKLEIK
